Test [1] concerns the target soluble mouse FcRn, GST-tagged (mFcRn heavy chain ectodomains with human β2-microglobulin) (mouse | human) (UniProt Q61559). In words: SPR. Background: SPR reads the build-up and loss of mass on a sensor chip optically.
The target in test [2] is soluble human FcRn, GST-tagged (hFcRn heavy chain ectodomains with human β2-microglobulin) (human) (UniProt P55899). Briefly: SPR.
Sequence of UniProt P55899 (P55899 24-297, chain 1 of 2): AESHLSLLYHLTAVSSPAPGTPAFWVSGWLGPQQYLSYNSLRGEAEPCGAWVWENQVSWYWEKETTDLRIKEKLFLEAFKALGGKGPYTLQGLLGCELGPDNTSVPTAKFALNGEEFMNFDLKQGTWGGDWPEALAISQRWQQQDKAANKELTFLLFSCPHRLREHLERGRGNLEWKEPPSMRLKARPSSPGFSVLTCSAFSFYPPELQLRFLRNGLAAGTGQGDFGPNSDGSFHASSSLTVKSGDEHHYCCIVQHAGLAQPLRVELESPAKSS
Sequence of UniProt P55899 (P61769 21-119, chain 2 of 2, further chain): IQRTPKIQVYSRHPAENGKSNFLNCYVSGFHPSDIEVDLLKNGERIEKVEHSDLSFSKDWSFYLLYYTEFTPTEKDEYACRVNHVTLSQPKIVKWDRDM

Sequence of UniProt Q61559 (Q61559 22-297, chain 1 of 2): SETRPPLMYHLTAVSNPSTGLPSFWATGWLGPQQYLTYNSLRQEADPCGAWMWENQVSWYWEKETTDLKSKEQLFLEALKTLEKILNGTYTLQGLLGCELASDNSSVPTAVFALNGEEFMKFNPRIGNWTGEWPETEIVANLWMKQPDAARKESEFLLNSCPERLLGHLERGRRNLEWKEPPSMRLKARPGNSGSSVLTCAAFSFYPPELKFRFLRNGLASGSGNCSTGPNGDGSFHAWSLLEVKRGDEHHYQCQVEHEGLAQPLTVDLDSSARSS
Sequence of UniProt Q61559 (P61769 21-119, chain 2 of 2, further chain): as the sequence (P61769 21-119, chain 2 of 2, further chain) above

On to “anti-CEA cT84.66 scFv-Fc H435Q (Fc fusion)”, for which, in test [1], the KD1 (heterogeneous ligand model) was determined as 80.9 nM and the KD2 (heterogeneous ligand model) came out at 400 nM.
In test [1], “anti-CEA cT84.66 scFv-Fc H435R (Fc fusion)” returned a KD1 (heterogeneous ligand model) of 1.8 nM and a KD2 (heterogeneous ligand model) of 122 nM. In test [2], this substance came in with a KD1 (heterogeneous ligand model) of 9.4 nM and a KD2 (heterogeneous ligand model) of 197 nM.
In turn, “anti-CEA cT84.66 scFv-Fc WT (nonmutated) (Fc fusion)” yielded a KD2 (heterogeneous ligand model) in test [1] of 43.8 nM.

The values are drawn from PMC3391105.
